# B1: 6xHis-PcrP (PA2803), recombinant, purified from E. coli (natural protein)
# chain: MPSSDQLPRFTALLFGLSGGLVDFGARTLSLALLRSHPHSPAEHLRDASLLPFAEAQSFLLRRKPNKSERQRLEQALDEAAGEQAEAIAGAVALLESLDEQRIPYAWQDELPESVCQRLAAPLGRANALIPLAGARPWPAPDGCWQALARLGIERLDGCVLVSAQPRQLQAGLNAGLWTIGLAASGPSCGLSPADWDALGHTERDRLRADATLELYRLGVHSVIDHLGELQPCLHDLAVRRLKGEKP
# notes: PcrP (PA2803), Pseudomonas aeruginosa PAO1; cloned NdeI/EcoRI into pSKB3; No removal of the His tag is described; also called 6XHis-PA2803; pAAK001 construct; source: E. coli BL21(DE3), purified (Ni-NTA)
# Target: the molecule itself
# Assay: cross-linking; 50 µM purified PcrP with 0.02, 0.05, 0.1 and 0.2% glutaraldehyde, 2 min, 20 mM HEPES pH 7.8, 50 mM NaCl, 1% glycerol; stopped with Tris-HCl; 12% SDS-PAGE, Coomassie
protein,measurement,value
B1,stoichiometry N,2

# Reference: publication PMC12632274, “The PA2803-encoded PcrP exhibits a novel non-catalytic function and contributes to polymyxin B resistance in P. aeruginosa” (Journal of Bacteriology, 2025)
